# Results as given in patent US20230109393A1.
# Biological target: ACE2-ECD-sFc fusion protein (Homo sapiens)
# Assay: ELISA, plate coated with ACE2 ECD-sFc
row,Substance,EC50
1,S1-RBD-His protein (from UniProt P0DTC2 331-530) (ligand),0.4 µg/mL
2,S1-RBD-His-HRP (from UniProt P0DTC2 331-530) (ligand),0.19 µg/mL
